The values that follow come from patent US20240115717A1 (VRG THERAPEUTICS KFT, published 2024).

The assay has as its target phage-displayed CTXD of SEQ ID NO: 24 (bacteriophage M13). Description: Co-bead test, phage display (FIG. 3).

B1: his-tagged MMP-2 (Co-bead test; ProSpec #ENZ-769) (enzyme)
chain: YNFFPRKPKWDKNQITYRIIGYTPDLDPETVDDAFARAFQVWSDVTPLRFSRIHDGEADIMINFGRWEHGDGYPFDGKDGLLAHAFAPGTGVGGDSHFDDDELWTLGEGQVVRVKYGNADGEYCKFPFLFNGKEYNSCTDTGRSDGFLWCSTTYNFEKDGKYGFCPHEALFTMGGNAEGQPCKFPFRFQGTSYDSCTTEGRTDGYRWCGTTEDYDRDKKYGFCPETAMSTVGGNSEGAPCVFPFTFLGNKYESCTSAGRSDGKMWCATTANYDDDRKWGFCPDQGYSLFLVAAHEFGHAMGLEHSQDPGALMAPIYTYTKNFRLSQDDIKGIQELYGASPDIDLGTGPTPTLGPVTPEICKQDIVFDGIAQIRGEIFFFKDRFIWRTVTPRDKPMGPLLVATFWPELPEKIDAVYEAPQEEKAVFFAGNEYWIYSASTLERGYPKPLTSLGLPPDVQRVDAAFNWSKNKKTYIFAGDKFWRYNEVKKKMDPGFPKLIADAWNAIPDNLDAVVDLQGGGHSYFFKGAYYLKLENQSLKSVKFGSIKSDWLGC
notes: range 110-660; also called matrix metalloproteinase 2
Consider B1, for which the binding result was “binds”.
